Measured values: IntAct's records for PubMed 15147197

B1: Ferredoxin--NADP reductase (Anabaena sp. (strain PCC 7119)), P21890 (parent)
chain: MSNQGAFDGAANVESGSRVFVYEVVGMRQNEETDQTNYPIRKSGSVFIRVPYNRMNQEMQRITRLGGKIVTIQTVSALQQLNGRTTIATVTDASSEIAKSEGNGKATPVKTDSGAKAFAKPPAEEQLKKKDNKGNTMTQAKAKHADVPVNLYRPNAPFIGKVISNEPLVKEGGIGIVQHIKFDLTGGNLKYIEGQSIGIIPPGVDKNGKPEKLRLYSIASTRHGDDVDDKTISLCVRQLEYKHPESGETVYGVCSTYLTHIEPGSEVKITGPVGKEMLLPDDPEANVIMLATGTGIAPMRTYLWRMFKDAERAANPEYQFKGFSWLVFGVPTTPNILYKEELEEIQQKYPDNFRLTYAISREQKNPQGGRMYIQDRVAEHADELWQLIKNQKTHTYICGLRGMEEGIDAALSAAAAKEGVTWSDYQKDLKKAGRWHVETY
B2: Ferredoxin--NADP reductase, leaf isozyme, chloroplastic (Pisum sativum (Garden pea)), P10933 (parent)
chain: MAAAVTAAVSLPYSNSTSLPIRTSIVAPERLVFKKVSLNNVSISGRVGTIRAQVTTEAPAKVVKHSKKQDENIVVNKFKPKEPYVGRCLLNTKITGDDAPGETWHMVFSTEGEVPYREGQSIGIVPDGIDKNGKPHKLRLYSIASSAIGDFGDSKTVSLCVKRLVYTNDAGEVVKGVCSNFLCDLKPGSEVKITGPVGKEMLMPKDPNATVIMLGTGTGIAPFRSFLWKMFFEKHEDYQFNGLAWLFLGVPTSSSLLYKEEFEKMKEKAPENFRLDFAVSREQVNDKGEKMYIQTRMAQYAEELWELLKKDNTFVYMCGLKGMEKGIDDIMVSLAAKDGIDWIEYKRTLKKAEQWNVEVY

Variants of: B1
Conditions: with fer1_nosso petF

effect of a mutation on the interaction	Variant
increasing interaction	Y440F

Variants of: B1
Conditions: with fer1_nosso petF
Remark: another data set of the same source

effect of a mutation on the interaction	Variant
increasing interaction	Y440S
increasing interaction	Y440W

Variants of: B2
Conditions: with fer1_pea PETF

effect of a mutation on the interaction	Variant
increasing interaction	Y360S
increasing interaction	Y360W
